From the supplement of paper PMC9170038

System: K4 kissing-loop RNA reporter
Experiment: apparent KD of K4 kissing-loop reporter; higher = weaker reporter binding
Settings: Eterna round: R107
Procedure: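 RNA-MaP round R107: designed RNA switches with theophylline, tryptophan, arginine or FMN aptamers are transcribed on-chip within common flanks. They are titrated with a labelled K4 kissing-loop RNA reporter in RNA-MaP buffer (100 mM Tris pH 7.5, 80 mM KCl, 4 mM MgCl2), without ligand or with the indicated ligand. Median apparent KD per design.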

[1] = input ligand: theophylline 20 uM
[2] = input ligand: tryptophan 2.4 mM
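Note: bound reporter read as fluorescence of individual clusters on recovered sequencing chips by microscopy, with normalized cluster intensities fitted with a binding model.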

Row | Sequence | apparent KD of K4 kissing-loop reporter (input ligand: FMN 200 uM) [nM] | apparent KD of K4 kissing-loop reporter (input ligand: arginine 13.2 mM) [nM] | apparent KD of K4 kissing-loop reporter (input ligand: none) [nM] | apparent KD of K4 kissing-loop reporter [1] [nM] | apparent KD of K4 kissing-loop reporter [2] [nM]
1 | AUUUUGGUUGAGAGUGAUGUUCCUUGUGUUCGAGGACCGGUACGGCCGCCACUCGGGUAGAAAAUAAAAGAAAUGUUUGAUUUUU [BDazzled - #11 SS Tryptophan A] | 242 | 86.1 | 157 | 143 | 215
2 | UUCGGCCUGACGGCCGCCACUUUGGGUAGUGAUGUUACCAACAUUCACCAGAUACAGGUUACUUCAAGGACCGGGUCAGACGGUG [theeternabot_exclusion_KL_Trp_B_45] | 104 | 100 | 121 | 107 | 92.8
3 | CCCGUUGCGGCGGCCGCCACUGACUUAUUGAUUAGGUUGCCAGUGAUGUUGGCCACCGGUCAAUACAGGACCGGGCCAUAGCGGG [Ceisreatte] | 157 | 124 | 128 | 134 | 99.1
4 | AUGUUGAGCGGAAGGAGCGGCUGAACCAGUGAUGUUGGUUAAUCCAAGUGAUGUUGGAAAAGCCAGGUAGGUCGCCGCUUUAUGU [Same State Arg B GF 2] | 821 | 534 | 902 | 896 | 722
5 | GGCUAGACUUAGCUAGGUACAUAAUACGAUACCAGUCUAGAAAUAGACCCUUGGCAGCGUAGGCAGUGAUGUUGCCACUAGCUGA [Theo B SS t7] | 104 | 144 | 114 | 144 | 113
6 | UAUAUAGUGACGGCCGCCACUAUUGUGAUGUUAUUGUUAGAGUGAUGUUUUGUUGUUUAAUUUUGUAGGACCGGGUUAUAUGUUA [xxzsmullin] | 846 | 451 | 568 | 530 | 543
7 | GCAACAUUGGCAGGAUAUCCUUCUCAGUGAUGUUGAGGGUUCAGCUAACGAAAGUUAGUUGUACCAGGAGAAGGGCUAAUGUUGC [Omei KL FMN B SS A v7] | 416 | 815 | 1420 | 906 | 1440
8 | ACGUCACGUAUACUCGUGGUUUCGAUCGAUACCAGUAGCGAGAGUUACCCUUGGCAGCGACAUGAGUGAUGUUCAUGUGCGAAGA [KL-XTheo-A3 #analogue] | 118 | 106 | 112 | 104 | 111
9 | CGAUACGGAAAUACGUGUCUCUAUUCAGAAGGAGCGUGGUAGUACACAGGUAGGUCGCUGAAUUUUAAACUAGUGAUGUUAGUCU [JR_SSArginiA_Sub005] | 317 | 281 | 331 | 292 | 259
10 | UGAUACCAGACUGAUACCAGCGAGUGAUGUUUGUUGAUCAUAAGCAGUCAAAGACUGCUUUGCCCUUGGCAGCAGUCUGGUAUCU [#11 K4 Theophylline B Exclusion] | 871 | 565 | 838 | 334 | 600
11 | GAAAGAAAGAAUGAUACCAGACACCCGAGUGAUGUUCGGAGCAGAGUGAUGUUCUUUUAAGUCCCUUGGCAGCAUAAAAGAAAAG [whbob_SS_Theo_B_sa82] | 109 | 138 | 153 | 159 | 119
12 | CGCAGUGAUGUUGCGAGUAGCUACAGGGAAGGAGCGUGCUAGAGCACAGGUAGGUCGCCCACGCAGUGAUGUUGUGUUAAAGGGU [Exclusion Arginine A GF 12] | 141 | 116 | 123 | 149 | 117
13 | UGAUACCAGACGGCCGCCACUGCACCAGUCAAUGACUGAGUGCGGUAGUGCUCAGUGAUGUUGAGUAGGACCGGGUCUGGUAUCU [Mod of Eli's TrypBX 8 v3] | 148 | 124 | 131 | 130 | 130
14 | UGUACCGAGUGAGGAUAUGUCGUCGAAAGACGAAAUGGAGUGAUGUUCCUUAAACUGCGAAAGCAGACAGAAGGCACUUGGUACU [FmnBS 29 G11+C75] | 129 | 171 | 192 | 170 | 168
15 | UUUAACGAGUGAUGUUCGUAAAGUAAUAGUUAGGAUAUCGUUUUUUCGAGAAGGAACUUCGAAGUGAUACGAAAGUAUCGCUUCG [FMN A 8] | 136 | 192 | 192 | 205 | 152
16 | GUAUAUCGAACUGAUACCAGAGAAUAAAGCAGUGAUGUUGCAUAUAUAAAUAAGACUCGACUCCCUUGGCAGCGGGAAGAUAUAC [On purpose 1] | 170 | 231 | 197 | 280 | 146
17 | CGCGCGCGCGCGCGCGCGCGCGCGCGAAGUGAGGAUAUUUAGGGAGAAAGAAGGCACUAUAAAAUAUAGUGAUGUUAUAUAAGGG [SSFMNA.B] | 920 | 499 | 720 | 203 | 496
18 | AAGACCUGCAUCGAUACCAGCCCAGUGAUGUUGGGCUGCUCUCCAUGGGUGCCAGACACGGGCCCUUGGCAGCGAGGUAGGGCCC [Zazadilabi] | 136 | 106 | 117 | 93.1 | 103
19 | UGCAGUGAUGUUGCGAGUGGCAGAUACGAAGGAGCGUGGUGAGACACAGGUAGGUCGCGUAUCGAAAUUGCUGUCACUAAAAUGC [#8] | 385 | 411 | 501 | 425 | 460
20 | UGGGCUGCCUGAGGAUAUAGAGACGAGUGAUGUUCGUGGAUAAGAGCCAGUGAUGUUGGGUUAUUUCUAGAAGGCGGGCGAACUU [Exclusion FMN B GF8] | 105 | 104 | 120 | 129 | 115
21 | AUUUAAUGUAUAGAUUAUAUACAUUAUUCAGAGGAUAUGCAUUGAAGCAGAAGGCUGGGUGUAGUGAUGUUGCAGUUUUAAUUUA [whbob_SS_FMNA__2th173] | 150 | 254 | 152 | 224 | 122
22 | AAAUAGAUCAGUCACCCAGUGAUGUUGGAAGGAGCGUGCGAAAGCACAGGUAGGUCGCCAUAAUAAAAGUGGCUGAUCAAAAUAA | 446 | 287 | 487 | 534 | 310

Row | Sequence | apparent KD of K4 kissing-loop reporter (input ligand: FMN 200 uM) [nM] | apparent KD of K4 kissing-loop reporter (input ligand: arginine 13.2 mM) [nM] | apparent KD of K4 kissing-loop reporter (input ligand: none) [nM] | apparent KD of K4 kissing-loop reporter [1] [nM] | apparent KD of K4 kissing-loop reporter [2] [nM]
23 | UGACUGGACUGAAGGAGCGCGCGAGACAAAGUCUCGAACUGCUAGUGAUGUUAGCGAAUAACGCAGGUAGGUCGCAGUCUAGUCU [ArgBS 14 #SwitchBubble #StaticStem] | 177 | 146 | 175 | 155 | 156
24 | AUGACUCAAUAGUGAGUGAUGUUCACUGGACGAGGACCGGUACGGCCGCCACUCGAGAGUGGUGGACACUGUGUCACUGAGUCAU [Tryp A Ex t1] | 180 | 166 | 154 | 194 | 496
25 | GGAUCCACCAGUGAUGUUGGAGAAAACUCGAAGGAUAUGACGAAAGUCAGAAGGUCGUAGACUGGACAAAGUCCGGUCGGAUCCA [FmnA 19 G30+C56] | 500 | 541 | 539 | 490 | 461
26 | CUGCCUCACUCGGCCGCCACUGUAUAAAUGUGACAGUGAUGUUGUCGUCGGAAAGGGCACUUAGGCAGGACCGGGAGUUUCAGGC [theeternabot_exclusion_KL_Trp_B_20] | 837 | 409 | 801 | 870 | 686
27 | CGCCGCAAGGCGAGCGCUCCCACUCCGGAAGGAGCGCCCGGAAGGGCAGGUAGGUCGCCGGAGUGAUGUUCCGGUGGAGGGCUCG [#2 Exclusion - Arginine A Attempt #13 (Inspired by Omei)] | 358 | 248 | 334 | 491 | 416
28 | AAGUAGCUCUCGGCCGCCACUCCUCAGUGAUGUUGAGAUUUUUUCUGCCAAUUGGCGUUUUUUUAGAGGACCGGGAGAGCUACAA [AK1 SS Tryptophan B] | 332 | 365 | 339 | 291 | 124
29 | CACGUUUACCAAGGAUAUGGUCUGCCGCGGAACCGUUCAAGUGAUGUUUGAUUCGAGUAUUAAUCUCCAGAAGGUGGUAGUACAG [theeternabot_exclusion_KL_FMN_B_6] | 247 | 353 | 417 | 476 | 342
30 | AAAAUAAAUAGCAGUCAUGGAGUGAUGUUCCGAGGACCGGUACGGCCGCCACUCGACCAUCAUAAGAUGGAUGGCGAAGACUGCA [#SwitchBubble 24 #K4Early] | 515 | 544 | 483 | 445 | 864
31 | GGAUAGGACAGAGGAUAUGGAGAGUCUACAAAGUAGGCUCAUAAUCCUUGAAUGGAAGUGAUGUUUCCAGAAGGCUGUCCUAUCG [FmnBX 17 - #SwitchBubble #StaticStem #Palindromic] | 664 | 99.9 | 103 | 101 | 119
32 | CACCAUGAAUUCUCUAGGAGUGAUGUUUUUCGAGGACCGGUACGGCCGCCACUCGGACGAGGACCGUGGGAGCGGCGAAAAGACU [ghgmullin] | 206 | 225 | 329 | 152 | 309
33 | AUUGCGGCCGUUCUAUCACCAGGCGGAGAUACCAGAUGCCAGCAGAUCCCUUGGCAGCUCUGCACGAGAUCCAGUGAUGUUGGGU [theeternabot_exclusion_KL_Theo_A_9] | 319 | 239 | 320 | 288 | 276
34 | UGUCAUUGGUCGGCCGCCACUAGAAGGUCAAAGACCAUAGAGUGAUGUUCUGAGACGAAAGUCACUAGGACCGGGACCGAUGACU [TrypBS 6 #SwitchBubble #K4Middle] | 462 | 385 | 1140 | 440 | 786
35 | UGUCAUUGGUCGGCCGCCACUAGGACCGGGUUUUGCCUAGUGAUGUUAGUAUGAACGGCCGCCACUAGGACCGGGACCGAUGACU [KL-SSTryp-B26 #DoubleAptamer] | 468 | 279 | 473 | 377 | 105
36 | CUUGGCAUGCGCGAUACCAGCGAACAUAGCAAGCUACGGGUAGUGAUGUUAUCUGAAUAACGCCCUUGGCAGCGCACAUGCCGGC [clock] | 872 | 418 | 593 | 679 | 712
37 | CAUUCUAUAUGCAGUGAUGUUGCAACUGAUACCAGUAUCGAAAGAUACCCUUGGCAGCGGAAAACCGCUACGUAAUUUAAGAAUG [Ex Theophylline A K4 22] | 375 | 445 | 489 | 523 | 327
38 | GAGAACUCUUACGAUACCAGCCGGAGUGAUGUUCCGUGCUUGGACGUAGUAACCCGCACCGGCCCUUGGCAGCGUGGAUCCUAUG [Biorar] | 86.1 | 78.3 | 82.3 | 79.3 | 74.4
39 | GUGGCACGAAAGUGCCACGCAUCCUCUGGCUAGGAUAUCUGGAAACAGAGAAGGAGCUCAUGAGUGAUGUUCAUCUAGAGGAUGC | 827 | 537 | 1010 | 978 | 947
40 | CCUUUAGGCUCGGCCGCCACUCCAGUGAUGUUGGAGGUGCGUACAGAGCUAGAAAGCGUUAUCAGGAGGACCGGGAGUUUUAACG [Leorte] | 98.3 | 107 | 103 | 101 | 110
41 | GACAAUUCCGCUUCCGAGCAUACUUGACUGAAGGAUAUCAUCGUGUUGAGAAGGUCAGUAACAGAGAGUGAUGUUCUUUGAGGUC [theeternabot_sameState_KL_FMN_A_19] | 242 | 168 | 234 | 207 | 151
42 | CAGCAUCAGGUUCAAACUGCAUGUACUGAUACCAGUCUUAAGAUCGACCCUUGGCAGCAGCUCCCGAGUGAUGUUCGUAGCGAGC [theeternabot_exclusion_KL_Theo_A_41] | 362 | 339 | 356 | 401 | 336
43 | UAAGAAUAAGUAGCAGUGAUGUUGCUACUACGAGGACCGGUACGGCCGCCACUCGAGCCGUACCAUAACAUCACUGAGGUACGAA [(H1)-(H2)-(Trp1)-(Trp2)-(T)'-(H)'-(T)''] | 231 | 175 | 264 | 292 | 272
